Source: US20250388683A1 (VETOQUINOL, published 2025)
Read-outs that look alike come from different tables or passages of the source.

Experiments:
Experiment in all cases: cell-based or functional assay
[1] = target: T1, canine IL-31RA expressed on HEK-Blue STAT3 canine IL-31R reporter cells (with canine OSMR) (canine)
[2] = target: T1, canine IL-31RA expressed on HEK-Blue …; remark: listed apart in the source
[3] = target: T1, canine IL-31RA expressed on HEK-Blue …; remark: listed apart in the source
[4] = target: T1, canine IL-31RA expressed on HEK-Blue …; remark: listed apart in the source
[5] = target: T1, canine IL-31RA expressed on HEK-Blue …; remark: listed apart in the source
[6] = target: T1, canine IL-31RA expressed on HEK-Blue …; remark: listed apart in the source
[7] = target: T1, canine IL-31RA expressed on HEK-Blue …; remark: listed apart in the source
[8] = target: T1, canine IL-31RA expressed on HEK-Blue …; remark: listed apart in the source

Binder | Mean IC50 (nM) (n = 3), HEK-Blue cell-based SEAP assay [5] | further results
scFv-Fc-VTQ2202 (scFv-VTQ2202-HLλcap-GS18-MOUSE IgG2A-LALAPG-Fc) (Fc fusion) scFv: EVQLQQSGAELVKPGASVKLSCTASGFNIKSSFIHWLKQRPEQGLEWIGRIDPAFGATEYNPAFQGKVTITADTSSNTAYLQLSSLTSEDTAVYYCARYHYAASHFDAWGQGTTLTVSSGSTSGGGSGGGSGGGGSSRIVMNQTPKFLPISAGDRVIITCKSSQSVTNDLTWYQQKPGQSPKVLIHYASQRYTGVPDRFTGSGYGTDFTFTISTVQAEDLAVYFCQQDYASPFTFGSGTKLTVLGPRGPTIKPCPPCKCPAPNAAGGPSVFIFPPKIKDVLMISLSPIVTCVVVDVSEDDPDVQISWFVNNVEVHTAQTQTHREDYNSTLRVVSALPIQHQDWMSGKEFKCKVNNKDLGAPIERTISKPKGSVRAPQVYVLPPPEEEMTKKQVTLTCMVTDFMPEDIYVEWTNNGKTELNYKNTEPVLDSDGSYFMYSKLRVEKKNWVERNSYSCSVVHEGLHNHHTTKSFSRTPGK | – | IC50 ratio (IC50 candidate/IC50 VTQ2101) [1]: 1 ratio; IC50 (read off the curve); STAT3-SEAP reporter, canine IL-31 stimulation [2]: ~0.8 nM
scFv-VTQ2101-LH-Fc (scFv-VTQ2101-LH-GS18-Canine IgG2B-LALAPG-Fc) (Fc fusion) scFv: RIVMTQSPGSLAGSVGESVSINCKSSQSVTNDLTWYQQKPGEAPKVLITYASQRYTGVPARFSGSGYGTDFTLTINNLQAEDVGDYFCQQDYASPFTFGQGTKLEIKGSTSGGGSGGGSGGGGSSEVTLQESGPGLVKPSQTLSLTCVASGFSIKSSFIHWLRQRPGRGLEWIGRIDPAFGATEYNPAFQGRFSITADTAKNQASLQLSSMTTEDSAVYYCARYHYAASHFDAWGQGTLVTVSSPKRENGRVPRPPDCPKCPAPEAAGGPSVFIFPPKPKDTLLIARTPEVTCVVVDLDPEDPEVQISWFVDGKQMQTAKTQPREEQFNGTYRVVSVLPIGHQDWLKGKQFTCKVNNKALGSPIERTISKARGQAHQPSVYVLPPSREELSKNTVSLTCLIKDFFPPDIDVEWQSNGQQEPESKYRTTPPQLDEDGSYFLYSKLSVDKSRWQRGDTFICAVMHEALHNHYTQESLSHSPG | – | IC50 ratio (IC50 candidate/IC50 VTQ2101) [3]: 2.2 ratio; IC50 (read off the curve); STAT3-SEAP reporter, canine IL-31 stimulation [4]: 1 to 10 nM
8D3-VH-H/8D3-VL-Ev2 caninized antibody (antibody, V domains shown) VH: EVTLQESGPGLVKPSQTLSLTCVASGFSIKDSFIHWLRQRPGRGLEWIGRIDPAQGATEYDANFQGRISITADTAKNQASLQLSSMTTEDTAVYYCARYYYGASHFDAWGQGTLVTVSS VL: RIVMTQSPGSLAGSVGESVSINCKSSQSVTNDVTWYQQKPGEAPKVLIHYASQRYSGVPARFSGSGYGTDFTLTINNLQAEDVGDYFCQQDYASPFTFGQGTKLEIK | 0.59 | –
8D3-VH-518/8D3-VL-Ev2 caninized antibody (antibody, V domains shown) VH: VTLQESGPGLVKPSQTLSLTCVASGFSIKDSFIHWLRQRPGRGLEWIGYIDPLQGNTEYDPVFQGRLSITADTAKNQVSLQLSSMTTEDTAVYYCARYYYARSHFDAWGQGTLVTVSS VL: RIVMTQSPGSLAGSVGESVSINCKSSQSVTNDVTWYQQKPGEAPKVLIHYASQRYSGVPARFSGSGYGTDFTLTINNLQAEDVGDYFCQQDYASPFTFGQGTKLEIK | 0.57 | –
8D3-VH-Lv2/8D3-VL-Ev2 caninized antibody (antibody, V domains shown) VH: EVTLQESGPGLVKPSQTLSLTCVASGFSIKSSFIHWLRQRPGRGLEWIGRIDPLQGATEYNPVFQGRLSITADTAKNQVSLQLSSMTTEDTAVYYCARYHYAQSHFDAWGQGTLVTVSS VL: RIVMTQSPGSLAGSVGESVSINCKSSQSVTNDVTWYQQKPGEAPKVLIHYASQRYSGVPARFSGSGYGTDFTLTINNLQAEDVGDYFCQQDYASPFTFGQGTKLEIK | 0.38 | –
8D3-VH-518/8D3-VL-A caninized antibody (antibody, V domains shown) VH: VTLQESGPGLVKPSQTLSLTCVASGFSIKDSFIHWLRQRPGRGLEWIGYIDPLQGNTEYDPVFQGRLSITADTAKNQVSLQLSSMTTEDTAVYYCARYYYARSHFDAWGQGTLVTVSS VL: RIVMTQSPGSLAGSAGESVSINCKASQSVTNDVTWYQQKPGERPKVLIHYASNRYTGVPARFSGSGSGTDFTFTINNLQAEDVGDYFCQQDYSSPFTFGQGTKLEIK | 0.54 | –
8D3-VH-L/8D3-VL-Ev2 caninized antibody (antibody, V domains shown) VH: EVTLQESGPGLVKPSQTLSLTCVASGFSIKSSFIHWLRQRPGRGLEWIGRIDPAFGATEYNPAFQGRFSITADTAKNQASLQLSSMTTEDSAVYYCARYHYAASHFDAWGQGTLVTVSS VL: RIVMTQSPGSLAGSVGESVSINCKSSQSVTNDVTWYQQKPGEAPKVLIHYASQRYSGVPARFSGSGYGTDFTLTINNLQAEDVGDYFCQQDYASPFTFGQGTKLEIK | 0.41 | –
8D3-VH-518H/8D3-VL-A caninized antibody (antibody, V domains shown) VH: EVTLQESGPGLVKPSQTLSLTCVASGFSIKSSFIHWLRQRPGRGLEWIGYIDPLQGGTEYNPVFQGRLSITADTAKNQVSLQLSSMTTEDTAVYYCARYHYATSHFDAWGQGTLVTVSS VL: RIVMTQSPGSLAGSAGESVSINCKASQSVTNDVTWYQQKPGERPKVLIHYASNRYTGVPARFSGSGSGTDFTFTINNLQAEDVGDYFCQQDYSSPFTFGQGTKLEIK | 0.48 | –
8D3-VH-Lv2/8D3-VL-G caninized antibody (antibody, V domains shown) VH: EVTLQESGPGLVKPSQTLSLTCVASGFSIKSSFIHWLRQRPGRGLEWIGRIDPLQGATEYNPVFQGRLSITADTAKNQVSLQLSSMTTEDTAVYYCARYHYAQSHFDAWGQGTLVTVSS VL: RIVMTQSPGSLAGSVGESVSINCKSSQSVTNDLTWYQQKPGEAPKVLIHYASQRYPGVPARFSGSGYGTDFTLTINNLQAEDVGDYFCQQDYASPFTFGQGTKLEIK | 0.41 | –
8D3-VH-L/8D3-VL-G caninized antibody (antibody, V domains shown) VH: EVTLQESGPGLVKPSQTLSLTCVASGFSIKSSFIHWLRQRPGRGLEWIGRIDPAFGATEYNPAFQGRFSITADTAKNQASLQLSSMTTEDSAVYYCARYHYAASHFDAWGQGTLVTVSS VL: RIVMTQSPGSLAGSVGESVSINCKSSQSVTNDLTWYQQKPGEAPKVLIHYASQRYPGVPARFSGSGYGTDFTLTINNLQAEDVGDYFCQQDYASPFTFGQGTKLEIK | 0.44 | –
8D3-VH-Lv2/8D3-VL-E caninized antibody (antibody, V domains shown) VH: EVTLQESGPGLVKPSQTLSLTCVASGFSIKSSFIHWLRQRPGRGLEWIGRIDPLQGATEYNPVFQGRLSITADTAKNQVSLQLSSMTTEDTAVYYCARYHYAQSHFDAWGQGTLVTVSS VL: RIVMTQSPGSLAVSVGESVSINCKSSQSVTNDVTWYQWKPGEAPKVLITYASIRYSGVPARFSGSGYGTDFTLTINNLQAEDVGDYFCQQDYASPFTFGQGTKLEIK | 0.49 | –
scFv-Fc-VTQ2201 (scFv-VTQ2201-HLλcap-GS18-Mouse IgG2A-LALAPG-Fc) (Fc fusion) scFv: EVQLQQSGAELVKPGASVKLSCTASGFNIKDSFIHWLKQRPEQGLEWIGRIDPANGNTEYDPNFQGKVTITADTSSNTAYLQLSSLTSEDTAVYYCARYYYGNSHFDAWGQGTTLTVSSGSTSGGGSGGGSGGGGSSRIVMNQTPKFLPISAGDRVIITCKASQSVTNDVTWYQQKPGQSPKVLIHYASNRYTGVPDRFTGSGYGTDFTFTISTVQAEDLAVYFCQQDYSSPFTFGSGTKLTVLGPRGPTIKPCPPCKCPAPNAAGGPSVFIFPPKIKDVLMISLSPIVTCVVVDVSEDDPDVQISWFVNNVEVHTAQTQTHREDYNSTLRVVSALPIQHQDWMSGKEFKCKVNNKDLGAPIERTISKPKGSVRAPQVYVLPPPEEEMTKKQVTLTCMVTDFMPEDIYVEWTNNGKTELNYKNTEPVLDSDGSYFMYSKLRVEKKNWVERNSYSCSVVHEGLHNHHTTKSFSRTPGK | – | IC50 ratio (IC50 candidate/IC50 VTQ2101) [1]: 1 ratio; IC50 (read off the curve); STAT3-SEAP reporter, canine IL-31 stimulation [6]: ~1 nM
monoclonal anti-cIL-31RA antibody 28F12 (antibody, V domains shown) VH: EVQLVESDGGLAQPGRSLKLSCAASGFTFSDYYMAWVRQAPTKGLEWVATISYDGSSTYYRDSVRGRFTISRDNAKSTLYLQMDSLRSEDTATYYCARGPLTDWAPNWFAYWGQGTLVTVSS VL: DIQMTQSPASLSASLGETVTIQCQTSEDIYSGLAWYQQKPGKSPQFLIYGASRLEDGVPSRFSGSGSGTQYSLKISSMQTEDEGVYFCQQGLKYPNTFGAGTKLELK | – | IC50 ratio (IC50 candidate/IC50 VTQ2101) [7]: 5.6 ratio; IC50 (read off the curve); STAT3-SEAP reporter, canine IL-31 stimulation [8]: ~0.7 nM

Now from value to binder, other results behind:

Mean IC50 (nM) (n = 3), HEK-Blue cell-based SEAP assay [5] | Binder | further results
0.44 | 8D3-VH-N/8D3-VL-E caninized antibody (antibody, V domains shown) VH: EVTLQESGPGLVKPSQTLSLTCVASGFSIKSSFIHWLRQRPGRGLEWIGYIDPLQGGTEYNPVFQGRISITADTAKNQVSLQLSSMTTEDTAVYYCARYYYAQSHFDAWGQGTLVTVSS VL: RIVMTQSPGSLAVSVGESVSINCKSSQSVTNDVTWYQWKPGEAPKVLITYASIRYSGVPARFSGSGYGTDFTLTINNLQAEDVGDYFCQQDYASPFTFGQGTKLEIK | –
0.54 | 8D3-VH-N/8D3-VL-Ev2 caninized antibody (antibody, V domains shown) VH: EVTLQESGPGLVKPSQTLSLTCVASGFSIKSSFIHWLRQRPGRGLEWIGYIDPLQGGTEYNPVFQGRISITADTAKNQVSLQLSSMTTEDTAVYYCARYYYAQSHFDAWGQGTLVTVSS VL: RIVMTQSPGSLAGSVGESVSINCKSSQSVTNDVTWYQQKPGEAPKVLIHYASQRYSGVPARFSGSGYGTDFTLTINNLQAEDVGDYFCQQDYASPFTFGQGTKLEIK | –
0.54 | 8D3-VH-Lv2/8D3-VL-H caninized antibody (antibody, V domains shown) VH: EVTLQESGPGLVKPSQTLSLTCVASGFSIKSSFIHWLRQRPGRGLEWIGRIDPLQGATEYNPVFQGRLSITADTAKNQVSLQLSSMTTEDTAVYYCARYHYAQSHFDAWGQGTLVTVSS VL: RIVMTQSPGSLAGSVGESVSINCKSSQSVTNDLTWYQQKPGEAPKVLITYASQRYTGVPARFSGSGYGTDFTLTINNLQAEDVGDYFCQQDYASPFTFGQGTKLEIK | –
0.44 | 8D3-clone7v2-VH/8D3-clone 7-VL caninized antibody (antibody, V domains shown) VH: EVTLQESGPGLVKPSQTLSLTCVASGFSIKSSFIHWLRQRPGRGLEWIGRIDPLQGGTEYNPVFQGRISITADTTKNQVSLQLSSMTTEDTAVYYCARYYYAQSHFDAWGQGTLVTVSS VL: RIVMTQSPGSLAGSAGESVSINCKSSQSVTNDLTWYQQKPGEAPKVLIHYASQRYTGVPARFSGSGYGTDFTLTINNLQAEDVGVYFCQQDYSSPFTFGQGTKLEIK | –
